The data set has as its target TaMYB-D7b (2174 allele, Gly-50) (Triticum aestivum cv. 2174, UniProt A0A410P7J2). The data set can be described thus: EMSA; EMSA: 100 fmol biotin probe, 1 ug protein, 20 uL, 1x binding buffer, 2.5% glycerol, 5 mM MgCl2, 1 ug poly(dI-dC), room temperature 30 min; pH and salt not given. As to conditions: protein: recombinant; tags: His (pET32a vector); label: 5'-biotin. (Mobility shift assays separate free from complexed probe on a gel.)

Sequence of TaMYB-D7b (2174 allele, Gly-50) (A0A410P7J2 entry or part of it): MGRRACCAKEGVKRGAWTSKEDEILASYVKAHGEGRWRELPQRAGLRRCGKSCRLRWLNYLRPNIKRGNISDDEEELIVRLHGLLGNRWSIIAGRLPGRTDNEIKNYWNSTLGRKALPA

B1: TaCHSL-A2 promoter probe (27 bp) (dsDNA)
DNA 1: TGCAAAGAAAACCAACCAACACTTACC
DNA 2: GGTAAGTGTTGGTTGGTTTTCTTTGCA
As for B1, the binding result is given as “binds”.

The values are drawn from article PMC12637205, “A natural allele of the transcription factor gene TaMYB-D7b is a genetic signature for phosphorus deficiency in wheat”.
